The text below walks through data of paper PMC3233575.

In test [1] the target is soluble recombinant DC-SIGN, entire extracellular domain (residues 70-404) (UniProt Q9NNX6). As to the kind of experiment: acoustic biosensor (RapID4); soluble DC-SIGN amine-coupled, BSA on the control cell; purified or unpurified inactivated virus 34-250 nM (by p24, 2500 gag per virion); Langmuir kinetic model.
For test [2], the target named is HIV-1 BX08 gp140 (soluble, trimeric ectodomain of the envelope glycoprotein, residues 31-663) (HIV-1 strain 92FR_BX08 (clade B, R5)). As to the kind of experiment: SPR; gp140 immobilised by direct amine coupling on CM5 (560 RU BX08, 620 RU IIIB); fluid phase DC-SIGN 50-600 nM or Langerin 25-200 nM; HBS-P pH 7.4 with 10 mM CaCl2; heterogeneous analyte model (KD2 oligomer, KD1 monomer).

Test [3] has as its target HIV-1 IIIB gp140 (soluble, trimeric ectodomain of the envelope glycoprotein, residues 31-665) (HIV-1 strain IIIB (clade B, X4), molecular clone pBH10) (UniProt P03375). The test is described as above.
For test [4], the target named is HIV-1 BX08 gp140 (soluble, trimeric ectodomain of the envelope glycoprotein, residues 31-663) (HIV-1 strain 92FR_BX08 (clade B, R5)).
The target in test [5] is HIV-1 IIIB virus particles (envelope glycoprotein on virions) (HIV-1 strain IIIB (clade B)) (UniProt P03375).
The target in test [6] is CHO-expressed soluble CD4 (UniProt P01730).

Chain of soluble recombinant DC-SIGN, entire extracellular domain (residues 70-404) (from UniProt Q9NNX6-1 70-404) (domain or fragment) (Q9NNX6 70-404): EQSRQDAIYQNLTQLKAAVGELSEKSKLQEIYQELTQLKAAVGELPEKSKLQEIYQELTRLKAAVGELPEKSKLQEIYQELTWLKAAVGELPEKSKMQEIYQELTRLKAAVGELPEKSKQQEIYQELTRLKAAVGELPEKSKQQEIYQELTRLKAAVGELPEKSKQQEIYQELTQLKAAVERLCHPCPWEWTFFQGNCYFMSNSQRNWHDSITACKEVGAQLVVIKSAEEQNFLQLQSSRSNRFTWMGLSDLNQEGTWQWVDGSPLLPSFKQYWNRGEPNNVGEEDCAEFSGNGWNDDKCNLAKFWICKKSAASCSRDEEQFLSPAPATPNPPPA
Chain of soluble recombinant Langerin, full extracellular domain (residues 56-328) (Q9UJ71 56-328): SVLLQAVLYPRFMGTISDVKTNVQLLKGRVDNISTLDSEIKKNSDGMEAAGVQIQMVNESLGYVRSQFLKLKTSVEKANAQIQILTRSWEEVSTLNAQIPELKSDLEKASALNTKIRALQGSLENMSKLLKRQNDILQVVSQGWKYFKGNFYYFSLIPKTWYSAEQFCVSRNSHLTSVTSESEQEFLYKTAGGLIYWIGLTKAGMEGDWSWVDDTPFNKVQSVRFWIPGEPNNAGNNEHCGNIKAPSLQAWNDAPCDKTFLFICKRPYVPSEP
Chain of soluble recombinant DC-SIGN, entire extracellular domain (residues 70-404) (UniProt Q9NNX6) (Q9NNX6 70-404): as the sequence (Q9NNX6 70-404) above

On to “HIV-1 IIIBx virus particles (envelope glycoprotein on virions), CD4-independent variant of IIIB (from UniProt P03375 33-511; P03375 512-856) (complex)”, for which the Kd in test [1] amounted to 20 nM.

For “soluble recombinant Langerin, full extracellular domain (residues 56-328) (from UniProt Q9UJ71 56-328) (domain or fragment)”, the values for the KD2 (trimeric form, heterogeneous analyte model) in test [2] and in test [3] were 0.024 µM and 0.011 µM, respectively.

On to “soluble recombinant DC-SIGN, entire extracellular domain (residues 70-404) (from UniProt Q9NNX6-1 70-404) (domain or fragment)”, for which, in test [4], the IC50 of soluble DC-SIGN for inhibition of HIV-1 BX08 replication in PM1 cells (p24 release, 10 days); pair said to be blocked: envelope protein with CD4 was 2.5 nM. In test [5], this substance returned an IC50 of soluble DC-SIGN for inhibition of HIV-1 IIIB replication in PM1 cells (p24 release, 10 days); pair said to be blocked: envelope protein with CD4 of 4 nM. For the same substance, the figures for the KD2 (tetrameric form, heterogeneous analyte model) in test [2] and in test [3] were 0.062 µM and 0.063 µM, respectively.

As to “HIV-1 BX08 gp140 (soluble, trimeric ectodomain of the envelope glycoprotein, residues 31-663) (domain or fragment)”, the maximum enhancement of p24 release from PM1 cells infected with HIV-1 BX08 pre-incubated with soluble DC-SIGN at <1 nM, against no treatment in test [6] was found to be 3.6 fold.

For “HIV-1 IIIB virus particles (envelope glycoprotein on virions) (from UniProt P03375 33-511; P03375 512-856) (complex)”, in test [6], the maximum enhancement of p24 release from PM1 cells infected with HIV-1 IIIB pre-incubated with soluble DC-SIGN at <1 nM, against no treatment is 15.3 fold. In addition, the Kd in test [1] was determined as 96 nM.
